We go through 16 sequences from a protein production outcome set (Wang et al. 2014).

The nature of this data set: label from the status in PepcDB records.
For “MAPFTLYTHAGPGPNPVKVAMALEHLGLDYDCIPLAFGEGKGTVKDPEYTSKVNPNGRVPGLIDHENNDFTVFESAAILQYLAEKTIQYDTSGKLAGSTPEERATVNKWLAWQVSGLGPYQGQLVWFLAFHEGAHGEKPNGSVIARYQAEVERLRSVLEKHLASAENGFVALGRLTIADFAILPWLKISVLAGSALKSFEEYPAINAYIKKLDALPEVQAAYKKAVPPMQ”, the protein production entry is reported as “failed”.

Take “MAPLDSKSAGGEPGVWKSGRGRGRRLPKGRVYSDEALAAVRGVLGDRPRRRDLLIEFLHLIQDVYGHLSADHLAALAFEMKLGQAEVYETATFYAHFDVVKEGETPPPALTIRVCDSLSCALAGAEQLRAALEEGLDPGQVRVLRAPCMGRCDTAPVLELGHNHIDHATPEKVRAAIAAGDTHAHLPDYEGFDAYAAAGGYAVLKGLRAGGDWEAVQDSVLAAGLRGLGGAGFPSGRKWGFVRANPGPRYLAVNGDEGEPGTFKDRYYLERVPHLFLEGMLIAAWAVEAETCYIYMRDEYPAVLEILRREIAALEAAGIVAKGYIDLRRGAGAYICGEESAMIESIEGKRGLPRHRPPFVAQVGLFGRPTLVHNIETLHWVARVCREGPEVLNSIEKNGRKGLRSYSVSGRVARPGVHLLPAGSTIRDVIAAAGGMAAGHVFKAYQPGGPSSGLLPASMDDIPLDFDTLQPHGSFIGSAAVVVLSQQDSARDAALNMLRFFEDESCGQCTPCRAGCEKAVKLMQAEHWDQPLLEELCQVMADASICGLGQAAPNPIRLTMKHFAEEI”: the protein production result is on record as “failed”.

Take “MAPLLSLCMIVKNEAHQLRRCLQSVQPWVDEIIIVDTGSTDGTIAIACEFTPHVHAVAWQGDFAAARNAALAQATGEWVFYIDADEELVVTDAHWQDQLTAPGAHAINQWSLLRREQSSDRNWSEFWNVRFGRRFPDLHFAGALHEQLCYREREAVVGELQGVYLIHHNQQSQEQFLAKIRDRNIPILETMVQQGDRRLQNLVCLGDHYAACGDSDRSQAWYEQALEEIASAVEQGILPRETTWLRHLLFWVSYRAFEAKDYETAQYYLSYGLRFFDRYPPLLYVAGLFVFELGLPRGALPYFHRCLDLFEAGSYDRTEPFDRQWMTTQPAYSLGYTYMTLQERDRAIAYFQKTLKFNPDYPPAQMYLEQLLRASANQGLEHHHHHH”: the protein production result is reported as “failed”.

On to “MAPRTYASVLTTPRGPAPLALYCPEAPECPKLEAISNLSFQQITQQAGTSNDQGFEFENTYVEHRINQEIESFVDTHHQEPLRKAAAQFRAVMKQEYPDSTCFITGSYPAGVDIFSSDIDFTVKVPTLEGANPFLKLMQLRKELSCYYTIFSKAYVQKGNIPVLQLMHAETKVSIDVTIDNDTSKRNTQLLAFYSQLDTRFPLLCKAMKAWAASCGVEGASRGRLNSFSLCLMLIHYLQTVQVLLNIQEIFPELNGDIVVEDDNYMKRDLKIEILEKGAFDFNQNTSSLAVLFIGFMKYYSEFNFKWNWISIKHGNVLKKKWSKTRVPKNGMPKDCRFIVVADPLLEIPRNCAGTVRQQNYMERIQLEFREEYERILKRKTIFNLYQCNWSRKLRKEGMERDLQIMILQDELRKLRIANLPTEEEVPWGTVVDFTSPRTFSPTNQHPKVFWCSEQTTENQRRDNLWPELLRTNPYAIFENLI”, for which the protein production result is recorded as “not failed”.

In the case of “MAPSHDRGRVDRALARVSHAFSILIAALTFALPGVATAGDVPTFAVDPAWPKPLPNNWILGQVGGITVDWQGHIWVIHRPRSLTDDEKGASLNPPRSKCCVSAPPVLEFDTDGNLLRSWGGLGEGYEWVGREHGIEVDERGFVWVGGNADNDNAILKFTLDGKFVAQIGKIAPSLGSNDTTQLGKPAETAIDKAANEIYVADGYGNRRVIVFDATTLAYKRHWGAYGNKPNDDKQGPYDPKAPVAQQFGNPVHCVKLANDGLVYVCDRINNRIQVFRKDGTFVKEFFFEKNTLGNGAVWDIAIWPDPKQTWLLSADGENNEIRVIRRDDGSVVGSFGRNGRNAGQFHWVHAMAIDAKGNVYTAEVDTGKRIQKFKLTSDALK”, the protein production entry is “failed”.

For “MAPVKLYMVEVIDKKEIAANERRSRENDVTGPEITHYYQVTFRLTTDDRKDLVLNIDKSSYQNIEPEMKGRLFMQGSRFVQFETDVPIDEQKLEHHHHHH”, the protein production result was “not failed”.

For “MAPVLENRRARHDYEILETYEAGIALKGTEVKSLRAGKVDFTGSFARFEDGELYLENLYIAPYEKGSYANVDPRRKRKLLLHKHELRRLLGKVEQKGLTLVPLKIYFNERGYAKVLLGLARGKKAYEKRREDKKEAVRRALEEL”, the protein production entry was “not failed”.

With “MAQARCGGELLGLRAVLCVPPCPMPRLLPLTLLLLAAAAHAQSAAPLTIEQAMADPDWIGPSVDQAWWQWDGKQVQYLLKRAGSPVRDTYRQSTAGGTAERVADTARAGLDAANPSYDATRQRMLFARNGDIFLRDLRSGALTQLTRSNEIESRPQFASDGGAIWRAGNNWYHWRADGGTAQVAVVKAERDPDAAPKPDVLREHQLATLATLRRDKEQRDALRTQDDAWRRADATRAAAPVYLGDEVEIVDSALSPDGRHLLVVTQATNAEEGQAGKMPKYVTESGYEEFQEVRTRVGRNASVAHALWLVDVSAGTAKSLSFDPLPGIATDPLAALRKAAKRDALKGNRAVRVESNGDGSGPAVHWSDDGRNVAVEIRAVDNKDRWIASVDLDNAKLQPRHRLSDSAWINWDFNDFGWLPDNRTLWLLSEESGYSQLYTMEGNSKPRQRTRGKWEVSMPVPSADGSGMFFLCNQKWPGDYEVCKLDLRNDQLTEVTALNGVEGFSLSPNGQQLLVSYSGSYLPTQLAVVPATGGQATVLTDTRTPAFKAQPWIAPQYVQVPSKHGAGTVWGKYYGPTTPEPGKQYPIVMFVHGAGYLQNVSERYTPYFREQMFHNLLVQQGYIVLDLDYRASRGYGRDWRTAIYRNMGHTELEDYLDGLDWLVATKQGDRARAGIYGGSYGGFMTYMALFRSPGTFKAGAALRPVGDWMQYNHEYTSNILNTPELDPEAYKTSSPINYAEGLRDHLLIAHGMIDDNVFFKDSVDMTQKLMELHKDNWQLALYPLERHGFTRADSWLDEYKRILKLFNAQVKP”, the protein production entry was “failed”.

In the case of “MAQDIIDGINPTRMELLSLKNRTKLAVKGHGLLKEKRDALIKEFFDILDRVKGVREAAERSLKEANEALLEAQIAMGDLAVRKASLSVKESIDVDIKSRSVMGVSVPVTNVKMEERSIIDRGYSFSDTTIQLDEAAKKFEESIKFLIELGEVEKTIFLLAEEIEATKRRVNALEHIMIPRFENTEKYIDMRLQEMERENFVRLKMIRSTIEKKDNEAKEAAIEEEAAEVEA”, the protein production result is “failed”.

In the case of “MAQFAVIGLGSFGATVATELTKLNHDVIGIDSVKRNVEDLSDQLTHAVIADASDEHVLEELNIQNCETVVVAIGEDIEASILCVLHLKNMGVPQIWVKAKTKAHHMILSHLHVDKIIHPEEDMGVRIAQALNYPMVSRYMALDNDHFIVKVEIPKHLNGVHLLGLINEMSDVKTILLKRGKDIIYEPDPTCPVQSKDILILEGHIDQLKKLSRRFLPHEKTKN”, the protein production entry is given as “failed”.

For “MAQHFLLTQKAKTLSAFEIANISEAEAFDLLCEARWGSKENVVCSKCGVQHKAYFISIRKQWRCKHCHHTFSVTSGTIFANHKLPLKTYLYILIRFVNAVKGVSALEISRDAKINYRTAFVLCHKLRKALLESRDMQPLSGEVDMGGTYIHPAPRKANKKADRIDYRLKENQNPNKRCVVVAREHFSADEKAENSLYRGAKRSHVFVTYSETQSVVKNFAHAYIEKNSRINTDENTAYESLLLDYDLRTVNHKDEYRSDFGVTNNQAESFFSRFKRMYYGHVHKMSNTYLLNYANEIAYREDNRRKPNGWQFHDILGKCLETTNEQNEWCGYWQRKIFHQEVIWQ”, the protein production entry was “failed”.

“MAQKENNIIPMIFDEAFYRKMATQKWRQQDYKKAAEYYEKVLELSPKDFDIQQHYAQCLVKLNIGKKAERLFYENIVKDFHVAESFYELSQLNIELNEPNKAFLFGINYVILSEDKDFREMLEKTFEVAYTNEQKIELEAQLFSTQLLFQFLFSQGRLEEARTYILNQSYEIQQHRVIRNLLAMCYLYLGEYDSAKAMFEELLKEDNSDVHALCHYTLLLYNKKETEKYQKYLKILNKVVPLNDDETFKLGIVLSYLKQYRASQNLLYPLYKKGKFVSIQMYNALSFNFYYLGNKDESIEMWNKLTQISKVDVGYAPWVIEESKTVFESRVLPLLLDDNNHYRLYGIFLLHQLNGKEILMTEDIWSILESMNDYEKLYLTYLVQGLTLNKLDFIHRGMQRLYNFKKFKYNTSLFTDWINQAEMIISENVDLVDVDRYVAAFVYLSYRRSSQPLTKRQLMDDFNVSRYKLNKAIEFILSI”: the protein production entry is listed as “failed”.

Turning to “MAQRERKAGVVKRDKADKWNHVETARYFRDLQENEVRTMHYLGLAYVVLSRRPNLQLKVPLSTQNYEDGAIVGAGERGGYALQLLFTCAANYPLARPLVEIVEKRNVSDAFEQVLRKEIDLILEEHLGLQMIVPVVTRLQITLNTEMKRQRF”, the protein production result is recorded as “failed”.

As for “MAQRKNAKSSGNSSSSGSGSGSTSAGSSSPGARRETKHGGHKNGRKGGLSGTSFFTWFMVIALLGVWTSVAVVWFDLVDYEEVLGKLGIYDADGDGDFDVDDAKVLLGLKERSTSEPAVPPEEAEPHTEPEEQVPVEAEPQNIEDEAKEQIQSLLHEMVHAEHVEGEDLQQEDGPTGEPQQEDDEFLMATDVDDRFETLEPEVSHEETEHSYHVEETVSQDCNQDMEEMMSEQENPDSSEPVVEDERLHHDTDDVTYQVYEEQAVYEPLENEGIEITEVTAPPEDNPVEDSQVIVEEVSIFPVEEQQEVPPETNRKTDDPEQKAKVKKKKPKLLNKFDKTIKAELDAAEKLRKRGKIEEAVNAFKELVRKYPQSPRARYGKAQCEDDLAEKRRSNEVLRGAIETYQEVASLPDVPADLLKLSLKRRSDRQQFLGHMRGSLLTLQRLVQLFPNDTSLKNDLGVGYLLIGDNDNAKKVYEEVLSVTPNDGFAKVHYGFILKAQNKIAESIPYLKEGIESGDPGTDDGRFYFHLGDAMQRVGNKEAYKWYELGHKRGHFASVWQRSLYNVNGLKAQPWWTPKETGYTELVKSLERNWKLIRDEGLAVMDKAKGLFLPEDENLREKGDWSQFTLWQQGRRNENACKGAPKTCTLLEKFPETTGCRRGQIKYSIMHPGTHVWPHTGPTNCRLRMHLGLVIPKEGCKIRCANETRTWEEGKVLIFDDSFEHEVWQDASSFRLIFIVDVWHPELTPQQRRSLPAI”, the protein production result was “failed”.

Turning to “MAQSNSRETFSSRLGFILAAAGAAVGLGNIWGFPTQAASNGGGAFLLVYLILIFVVAFPMLVVEMAIGRYGQANPVDSMRSLTSQPAAKKVGGFVGWVGLSVPSAVLAFYSIVGGWIICFLLGAMTDLFGFTAASAWLKGFSVERNLFGTLIFYVLTILIVQGGVKQGIERWSTRLMPALFVLFAVLFIYIMTQQGAWEGLKHYLIPDFEKVWDRKLILAAMGQGFFSLTIGGCSMLIYGSYLSKKENLPKMAMSVTLVDTAVAFIAGLVVLPAMFVAMNKGVQIYAQDGSLLSSDTLVFTVLPLMFDSLGLLGQIFAMVFFLLLTIAALTSSISMLECPVALVGERFNTRRTPTSWVLGGLIALFSVVIVYNFGALFGLVATLATQYLQPTAALMFCLFGGWVWQRDAKMKELQAGFPELQQSLFGKIWPWYVKFVCPVLVATVIWASFG”, the protein production result is recorded as “failed”.

For the sequence “MAQVEAPVIGITVLYFLAIIIIGYYSRQRLKSATDYYVAGRQVGAVVNGLALESTYLSPASMLGLPAYIFILGYPFWWAMSAIIAGMPIATLLTASALRKYAPTSFADYYADRYNDQRLRWLVGIVTVIGAVLYITLSLVGMALFLLAVAKVPYIIGLIVGTIIVMLYVVWGGMIATSWNAAFQAFLMTVAAVIAAAVIVIKLGGLGGFYEAVLANNPKFWNTPSDPEPPHLLSGTWIAVIGWFFVWHYGFATMPYTVVRFFTTMDIKTARRSIFWCTLAAGIFYMALEIIGAASKLMIETGPMGGEGANAVKILQSYMAQYGVGGWTDYSMIAAVEALQNPWVLGILCAGGLAIAMSTAAGWVMVVNTLLTRDWGDMLLKSKFAKEKPVTLARIISVIFLIVGFLVAINPPGLVLDLSGWAFVVIISALGPGLVLGLWWKRATRAAMWTTAIVMTPLHLYAWLKAKLVLGHHAFFFLNDVLFGNAKALITPHQVWAIPVGFLLFIIVSLITKPVEEEAVQKYCVELTKEV”, the protein production result was “failed”.
